{
  "source": "patent US20250368742A1",
  "about": "(D2M BIOTHERAPEUTICS, published 2025)",
  "binders": {"B1": {"name": "1D5 (antibody, human IgG1, kappa, V domains shown)", "VH": "EIQLQQSGPELVKPGASVKVSCKASGYAFTSQNIYWVKQSHGKSLEWIGYIEPYNVVPMYNPKFKGKATLTVDKSSSSAYIHLNSLTSEDSAIYYCARSGSSNFDYWGQGTTLTVSS", "VL": "EIILTQSPTTMAASPGEKITITCSASSSISSHYLHWYQQKSGFSPKLLIYRTSNLASGVPARFSGSGSGTSYSLTIGTMEAEDVATYYCQQGSSLPLTFGAGTKVEIKR", "notes": "also called ID5"}},
  "molecular_target": "T1, human MICB005 on cells (human)",
  "T1 construct": "whole, on cells; also called CHO-MICB005; C1R-MICB005",
  "assay": "flow cytometry, CHO-MICB005 cells",
  "data": [
    {"binder": "B1", "values": [
      {"measurement": "EC50", "result": 0.142, "unit": "µg/mL"}
    ]}
  ]
}
